Read-outs that look alike come from different tables or passages of the source.
T1: soluble monomeric human MUC16, truncated format encompassing the last five SEA domains of Mucin-16 (human)
T1 construct: also called hMUC16.mmh; MUC16 "nub"
T1 chain: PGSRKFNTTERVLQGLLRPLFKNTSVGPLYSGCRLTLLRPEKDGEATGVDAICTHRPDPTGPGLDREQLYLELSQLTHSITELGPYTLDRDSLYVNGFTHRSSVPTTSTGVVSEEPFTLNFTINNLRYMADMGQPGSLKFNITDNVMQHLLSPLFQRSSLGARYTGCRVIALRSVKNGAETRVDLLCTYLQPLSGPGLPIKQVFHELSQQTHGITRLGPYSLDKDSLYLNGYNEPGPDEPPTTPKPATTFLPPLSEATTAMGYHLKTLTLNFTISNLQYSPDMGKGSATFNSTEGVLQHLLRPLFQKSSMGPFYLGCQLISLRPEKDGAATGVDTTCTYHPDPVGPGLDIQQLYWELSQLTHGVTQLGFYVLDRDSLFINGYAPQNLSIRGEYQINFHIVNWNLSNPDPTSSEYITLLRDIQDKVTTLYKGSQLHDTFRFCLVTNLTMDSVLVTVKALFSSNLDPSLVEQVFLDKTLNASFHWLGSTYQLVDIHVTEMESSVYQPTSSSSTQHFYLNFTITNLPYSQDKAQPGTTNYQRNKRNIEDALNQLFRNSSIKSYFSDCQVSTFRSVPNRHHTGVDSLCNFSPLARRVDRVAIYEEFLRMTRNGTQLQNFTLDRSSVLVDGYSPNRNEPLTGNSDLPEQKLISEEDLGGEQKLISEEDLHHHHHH

B1: H2M7135N (antibody, mouse IgG2, V domains shown)
VH: EVQLVESGGGLVQAGGSLRLSCAASGFTFSYHEMNWVRQAPGKGLEWVSYIGSRGTTKHYADPVKGRFTISRDNAKNSLYLQMNSLRAEDTAVYYCASEVGSILGYSMDVWGQGTTVTVSS
VL: DIQMTQSPSSLSASVGDRVTITCRASQSVSRYLNWCQQKPGKAPKLLTYAASSLQSGVPSRFSGSGSGTDFTLTISSLQPEDFAAYFCQQSYSTPPITFGQGTRLEIK
notes: Mouse IgG2 constant region (H2M)
B2: H1M7137N (antibody, mouse IgG1, V domains shown)
VH: QVQLQESGPGLVKPSETLSLTCTVSGGAINTYYWSWIRQPPGKGLEWIGYIYYRGNTNYNPSLRSRVTISVDTSKNQFFLKLRSVTVADSAVYFCARGWNYRAEYFQHWGQGTVVTVSS
VL: not shown
notes: Mouse IgG1 constant region (H1M)
B3: H1H8755P (antibody, human IgG1, V domains shown)
VH: EVQLVESGGGLVQPGRSLRLSCAASGFTFNDYAMHWVRQSPGKGLEWVSGIDWNGGSIDYADSVKGRFTISRDTAKNSLYLQMNSLKVEDTALYYCAKDIGHWNYIGGMDVWGQGTTVTVSS
VL: DIQMTQSPSSLSASVGDRVTITCRASQSINIYLNWYQQKPGKAPKFLIYAASSLQTGVPSRFSGSGSGTDFTLTISSLEPEDFATYYCQHSYSTPPITFGQGTRLEIK
notes: Human IgG1 (H1H)
B4: H1H8770P (antibody, human IgG1, V domains shown)
VH: QVQLVESGGGVVQPGRSLRLSCAASGFTFSDHGMHWVRQAPGKGLEWVAVISYHGSNKHYADSVKGRFTISRDNSKNALYLQMNSLRPEDTAMYYCAKDGYDFWNGYSLFDYWGQGTLVTVSS
VL: DIQMTQSPSSLSASVGDRVTITCRASQSISNYLNWYQQKPGKAPKLLIYTASNLLSGVPSRFSGSGSGTDFTLTISSLQPEDFATYYCQQSYSTPPITFGQGTKLEIK
notes: Human IgG1 (H1H)
B5: H1H8783P (antibody, human IgG1, V domains shown)
VH: QVQLVESGGGVVQPGRSLRLSCAASGFTFSDHAMHWVRQAPGKGLEWVAVISYHGTDKQYGDSVKGRFTISRDNSKNALYLQMNSLRPEDTAMYYCAKDGYDFWNAYSLFDYWGQGTLVTVSS
VL: DIQMTQSPSSLSASVGDRVTITCRASQSISNYLNWYQQKPGKAPKLLIYTASSLLSGVPSRFSGSGSGTDFTLTISSLQPEDFATYYCQQSYSTPPITFGQGTRLEIK
notes: Human IgG1 (H1H)
B6: H1H8790P (antibody, human IgG1, V domains shown)
VH: EVQLVESGGGLVQPGGSLRLSCEASGFTFSNYAMSWVRQAPGKGLEWVSGMSGSGTYPYYADSVKGRFTISRDNSKNMLYLQMNSLRVKDTAVYYCAKDGVDTAMILDTFDLWGQGTMVTVSS
VL: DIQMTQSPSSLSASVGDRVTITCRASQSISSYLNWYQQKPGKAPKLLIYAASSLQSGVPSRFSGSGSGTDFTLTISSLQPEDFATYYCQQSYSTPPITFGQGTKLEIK
notes: Human IgG1 (H1H)
B7: H1H8794P (antibody, V domains shown)
VH: QVQLVESGGGLVKPGGSLRLSCAASGFTFRDYSMSWIRQAPGKGLEWVSYVTFFNSAIYYADSVKGRFTISRDNAKNSLYLQMNSLRAEDTAVYYCAREREPIVGGFDYWGQGTLVTVSS
VL: DIQMTQSPSSLSASVGDRVTITCRASQSINSYLNWYQQKPGKAPKLLIYAASSLQGGVPSRFSGGGSGTDFTLTITSLQPEDFATFYCQQSYSSPPITFGQGTRLEIK
notes: Human IgG1 (H1H)
B8: H3M9524N (antibody, mouse IgG3, V domains shown)
VH: QVQLQQWGAGLLKPSETLSLTCAVYGGSFSDYYWSWIRQPPGKGLEWIGEINHRGKTNYNPSLKSRVSISVDPSKNQFSLKLSSVTAADTAVYYCARQGWNYAIFDYWGQGILVPVSS
VL: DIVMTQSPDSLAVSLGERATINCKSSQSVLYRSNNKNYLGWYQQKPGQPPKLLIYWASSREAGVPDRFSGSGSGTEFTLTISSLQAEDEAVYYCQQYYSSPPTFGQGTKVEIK
notes: Mouse IgG3 constant region (H3M)
B9: H3M9525N (antibody, mouse IgG3, V domains shown)
VH: QVQLQQWGAGLLKPSETLSLTCAVYGGSFSGYYWSWIRQPPGKGLEWIGEINHSGKTTYSPSLKSRVTISVDTSKSQFSLKLSSVTAADTAVYYCARQGLNYAIFDYWGQGTLVTVSS
VL: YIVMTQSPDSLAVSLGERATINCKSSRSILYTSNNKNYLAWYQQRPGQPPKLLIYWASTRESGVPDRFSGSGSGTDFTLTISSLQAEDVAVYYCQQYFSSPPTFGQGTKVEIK
notes: as for B8
B10: H1M9528N (antibody, mouse IgG1, V domains shown)
VH: QMQLQESGPGLVKPSETLSLTCTVSGGSISSYYWNWIRQPPGKGLEWIGYIYYSGNNFNPSLKSRVTISVDTSKNQFSLKLSSVTAADTAVYYCARAFHWNYEFDYWGQGTLVTVSS
VL: EIVLTQSPGTLSLSPGERATLSCRASQSVSNNYLAWYQQKPGQAPRLLLYGASSRTTDIPDRFSGSGSGTDFTLTISRLEPEDFAVYYCQQYDNSPLTFGGGTKVEIR
notes: as for B2
B11: H3M9529N (antibody, mouse IgG3, V domains shown)
VH: QVQLQQWGAGLLKPSETLSLTCAVYGGSFSGFYWSWIRQPPGKGLEWIGEINHSGSAKYNPSLKNRVIISIDTSKNQFSLKLDSVTAADTAVYNCARQGWNFAIFDYWGQGTLVDVSS
VL: DIVMTQSPDSLAVSLGGRATINCKSSQSVLHSSYNKDHLAWYQQRPGQPPKLLIYWASTRESGVPDRFSGSGSGTDFTLTISSLQAEDVAVYYCQQYNILPPTFGQGTRVEIK
notes: as for B8
B12: H2M9538N (antibody, V domains shown)
VH: QVQLQESGPGLVKPSETLSLTCTVSGGSISSYYWSWIRQPPGKGLEWIGYIYYSGSTNYNPSLKSRVTISVDTSKNQFSLKLSSVTAADTAVYYCARKKLVFDYWGQGTLVTVSS
VL: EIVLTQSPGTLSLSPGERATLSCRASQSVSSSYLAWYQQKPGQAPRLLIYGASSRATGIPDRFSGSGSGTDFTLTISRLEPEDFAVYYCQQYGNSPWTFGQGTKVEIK
B13: H1H9524N (antibody, human IgG1, V domains shown)
VH: QVQLQQWGAGLLKPSETLSLTCAVYGGSFSDYYWSWIRQPPGKGLEWIGEINHRGKTNYNPSLKSRVSISVDPSKNQFSLKLSSVTAADTAVYYCARQGWNYAIFDYWGQGILVPVSS
VL: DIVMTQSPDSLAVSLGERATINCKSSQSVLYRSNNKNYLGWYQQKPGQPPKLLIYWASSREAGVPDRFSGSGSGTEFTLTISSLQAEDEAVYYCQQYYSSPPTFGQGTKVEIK
notes: Human IgG1 Fc version
B14: H1H9525N (antibody, human IgG1, V domains shown)
VH: QVQLQQWGAGLLKPSETLSLTCAVYGGSFSGYYWSWIRQPPGKGLEWIGEINHSGKTTYSPSLKSRVTISVDTSKSQFSLKLSSVTAADTAVYYCARQGLNYAIFDYWGQGTLVTVSS
VL: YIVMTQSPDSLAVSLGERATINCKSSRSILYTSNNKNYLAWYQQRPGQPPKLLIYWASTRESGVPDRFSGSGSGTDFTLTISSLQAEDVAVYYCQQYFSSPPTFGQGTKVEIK
notes: Human IgG1 Fc version
B15: H1H9528N (antibody, human IgG1, V domains shown)
VH: QMQLQESGPGLVKPSETLSLTCTVSGGSISSYYWNWIRQPPGKGLEWIGYIYYSGNNFNPSLKSRVTISVDTSKNQFSLKLSSVTAADTAVYYCARAFHWNYEFDYWGQGTLVTVSS
VL: EIVLTQSPGTLSLSPGERATLSCRASQSVSNNYLAWYQQKPGQAPRLLLYGASSRTTDIPDRFSGSGSGTDFTLTISRLEPEDFAVYYCQQYDNSPLTFGGGTKVEIR
notes: Human IgG1 Fc version
B16: H1H9529N (antibody, human IgG1, V domains shown)
VH: QVQLQQWGAGLLKPSETLSLTCAVYGGSFSGFYWSWIRQPPGKGLEWIGEINHSGSAKYNPSLKNRVIISIDTSKNQFSLKLDSVTAADTAVYNCARQGWNFAIFDYWGQGTLVDVSS
VL: DIVMTQSPDSLAVSLGGRATINCKSSQSVLHSSYNKDHLAWYQQRPGQPPKLLIYWASTRESGVPDRFSGSGSGTDFTLTISSLQAEDVAVYYCQQYNILPPTFGQGTRVEIK
notes: Human IgG1 Fc version
B17: H1H9538N (antibody, V domains shown)
VH: QVQLQESGPGLVKPSETLSLTCTVSGGSISSYYWSWIRQPPGKGLEWIGYIYYSGSTNYNPSLKSRVTISVDTSKNQFSLKLSSVTAADTAVYYCARKKLVFDYWGQGTLVTVSS
VL: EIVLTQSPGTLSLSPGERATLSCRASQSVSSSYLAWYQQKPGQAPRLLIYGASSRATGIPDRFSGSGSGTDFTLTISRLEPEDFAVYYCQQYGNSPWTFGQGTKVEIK

Experiments:
[1] = biological target: T1, soluble monomeric human MUC16, …; assay: SPR Biacore, antibody captured, soluble monomeric hMUC16.mmh injected, 25C
[2] = biological target: T2, human MUC16 (mucin 16), endogenously expressed on cells (human); assay: MSD electrochemiluminescence cell binding; RLU ratio OVCAR-3/SK-OV-3; Ab 16.7 nM
T2 construct: Endogenous MUC16 on OVCAR-3 / OVCAR3-Luc / PEO-1 / HPAC cells; also called hMUC16

[3] = biological target: T2, human MUC16 (mucin 16), endogenously …; assay: MSD electrochemiluminescence cell binding; RLU ratio OVCAR-3/SK-OV-3; Ab 1.9 nM
[4] = biological target: T1, soluble monomeric human MUC16, …; assay: SPR Biacore, antibody captured, soluble monomeric hMUC16.mmh injected, 25C

Binder | Kd [1] [nM] | koff [1] [s⁻¹] | kon [1] [M⁻¹ s⁻¹] | t ½ [1] [min] | Ratio: anti-MUC16 Binding OVCAR-3/SK-OV-3 [2] [ratio] | Ratio: anti-MUC16 Binding OVCAR-3/SK-OV-3 [3] [ratio] | Kd [4] [nM] | koff [4] [s⁻¹] | kon [4] [M⁻¹ s⁻¹] | t1/2 [4] [min] | binding result [1]
B1 | 4.27 | 0.000218 | 51000 | 53 | 5 | 30 |  |  |  |  | 
B2 | 1.72 | 9.09e-05 | 53000 | 127 | 29 | 77 |  |  |  |  | 
B3 |  |  |  |  | 5 | 13 | 0.286 | 0.000149 | 522000 | 77 | 
B4 |  |  |  |  | 3 | 9 | 1.25 | 0.000308 | 247000 | 38 | 
B5 |  |  |  |  | 4 | 11 | 0.614 | 0.000107 | 174000 | 108 | 
B6 |  |  |  |  | 3 | 8 | 7.53 | 0.000761 | 101000 | 15 | 
B7 |  |  |  |  | 3 | 8 | 0.771 | 0.000279 | 362000 | 41 | 
B8 |  |  |  |  | 57 | 81 |  |  |  |  | no binding
B9 |  |  |  |  | 51 | 137 |  |  |  |  | no binding
B10 |  |  |  |  | 120 | 153 |  |  |  |  | no binding
B11 |  |  |  |  | 99 | 143 |  |  |  |  | no binding
B12 |  |  |  |  | 26 | 89 |  |  |  |  | 
B13 |  |  |  |  | 48 | 20 |  |  |  |  | 
B14 |  |  |  |  | 21 | 4 |  |  |  |  | 
B15 |  |  |  |  | 18 | 41 |  |  |  |  | 
B16 |  |  |  |  | 74 | 109 |  |  |  |  | 
B17 |  |  |  |  | 13 | 12 |  |  |  |  | 

— patent US20180112001A1 (Regeneron, published 2018)
